# Data taken from the DeepSol protein solubility set.
# Assay: soluble on expression in E. coli; label from the status in PepcDB or PDB records
row,Sequence,soluble on expression in E. coli
1,MSLTEFPGIVKEYEAITRYCGFNSIEAGKTMGLSPYGEPNPEIPPMFVNGFGNRNLFKPNYPNGAYVIEDRYKIIRDDYISHNGEVGTGEYTQVQKDLAYAIQKESEDQMCALIQKAHEMTGEKNIVICGGYGLNCVANYKFKQRFPNLNIYVEPISHDGGTSMGGAYHVYYNDYVKTGKESRKVEPPKTIYYGPQYDPDTYLNYIHEYPSAKVTDASYDSVARLIREGNIVTIFQGRSEAGPRALGNRSILFDPTIKDGKDIVNSVKHREFFRPFACSILADKVHDWFDLAGMDDSPSMMYAVDALPGVAEKIPSVIHVDNTCRIQTVTKEQNEHYYNLISAFEKLSNTPILFNTSFNLGGDPLVEDIDDALDTLSTSDINYMYLPEIQKLVELKTREMQDTRQQPINEGHHHHHH,soluble
2,MKAVSRVHITPHMHWDREWYFTTEESRILLVNNMEEILCRLEQDNEYKYYVLDGQTAILEDYFAVKPENKDRVKKQVEAGKLIIGPWYTQTDTTIVSAESIVRNLMYGMRDCLAFGEPMKIGYLPDSFGMSGQLPHIYNGFGITRTMFWRGCSERHGTDKTEFLWQSSDGSEVTAQVLPLGYAIGKYLPADENGLRKRLDSYFDVLEKASVTKEILLPNGHDQMPLQQNIFEVMDKLREIYPQRKFVMSRFEEVFEKIEAQRDNLATLKGEFIDGKYMRVHRTIGSTRMDIKIAHARIENKIVNLLEPLATLAWTLGFEYHHGLLEKMWKEILKNHAHDSIGCCSDKVHREIVARFELAEDMADNLIRFYMRKIADNMPQSDADKLVLFNLMPWPREEVINTTVRLRASQFNLRDDRGQPVPYFIRHAREIDPGLIDRQIVHYGNYDPFMEFDIQINQIVPSMGYRTLYIEANQPGNVIAAKSDAEGILENAFWQIALNEDGSLQLVDKDSGVRYDRVLQIEESSDDGDEYDYSPAKEEWVITAANAKPQCDIIHEAWQSRAVIRYDMAVPLNLSERSARQSTGRVGVVLVVTLSHNSRRIDVDINLDNQADDHRLRVLVPTPFNTDSVLADTQFGSLTRPVNDSAMNNWQQEGWKEAPVPVWNMLNYVALQEGRNGMAVFSEGLREFEVIGEEKKTFAITLLRGVGLLGKEDLLLRPGRPSGIKMPVPDSQLRGLLSCRLSLLSYTGTPTAAGVAQQARAWLTPVQCYNKIPWDVMKLNKAGFNVPESYSLLKMPPVGCLISALKKAEDRQEVILRLFNPAESATCDATVAFSREVISCSETMMDEHITTEENQGSNLSGPFLPGQSRTFSYRLA,not soluble
3,MSKALASDEKDDWITHLKAISNVFTQVCTLSASEESAKKLAIKEREECLQELVELRAIAEAHDDVIQQFHLLLAANHQGDATSRQIFNDMKQEVGDNMERIQEHRLVEAKLNVEKRRNERMAKHINEVSKKSVMHLMATRFYARELAAMRQMMDLVRNAATIESAVKSKLWDEIEKENRLLRLNTLWLINRINSSDLGDAAFENGDDWQSSPRLVILMREHINQGLGLEITGGCDQFRPVVVTGKLKRSMADDDQLRVNDRILAIDGTFVTNTTTHAEVMEMLENESAKDFISLIVSQFDPTKYHEAHPNGKCHKFVSTPISGKADSGEDV,not soluble
4,MSLKHMLIAGGGIGGLSAAISLRKAGFSVTLCEAASENRKTGAGILQPQNALAVLKELGVFEDCCKHGFQTEWFKTFDEQGNLLFQVSESFLDDSLPGRNNILRKTLNDILMKHAEAVGVDIKWGKKVVAYEETAESVTALCEDGEKMQADILAGFDGIHSVVRDKMLQKETEKEHLGMGAWRFYIELPDYTFEDATFMYRSGDTQIGVVPLAQHAGYVFVLQPCTSDYWDEEDTRFDRVKEILSGFRGLDFVTKHMSKQHPVIFNKLEQVAVQEPWHKGRVIIGGDAAHAGAPTLAQGAAMAIEDAIVLAEELQNHADHETALQAYYKRRAPRALKVQNLSSEIVRRRLKGEPGAEELIGECYAVLREGYEGGSHHHHHH,soluble
5,MGSDKIHHHHHHMTDQTAARACGIDFGTSNSTVGWLRPGHDTLLQLEDGKITLPSVVFFNYEEDHSRFGRAALAEYIDGFEGRLMRSLKSLLGSSLIDSQTEVQGKALPFRHLLKLFIQELKLRAEGAAGREFEQVVLGRPVYFVDDNPQADKLAQDTLADIARQVGFKEISFQLEPIAAAFDYESNIQKEELVLIVDIGGGTSDFTLIRLSPERRSHAERRDDILATGGVHIGGTDFDRQLSLHGVMPLFGFKTRLRNNAEMPSSQYFNLATWHTINFAYTRKAWMDLQDVHRDAAEPEKLDRLFKLIQERAGHWLAMEVEAAKIALSDRDSHRLALDAIERGLHCDLSRADFETSISALLDRVGGTVGKLLADSGLKAQDVDTVFFTGGSSGVPALRDGIRALLPNARHVEGNLFGSIGSGLAIEAKKRYG,not soluble
6,MQEHFHFTTDPAKLQKQYAAIFCFVSAQLSLIQMYLHRRNRHLVKQEDEVVMAVHLLGKLLGFSSERAWHRFVTGNLFTNGSFLERSRYNRRCRALGFAVKWIRHELAKRGQHHAYAVVDSLPLPLCHPARMQRVKRFRGIADMGYCASKKQWYYGFKLHLQVTHQGLAMGYVVTEASCHDVKAAETVMTQIPHPYNFGDKGYISRALREKLYEEHQAAFWTPSRHNQKHGPSKAWEEWIRKKRKVIETVFSILVDQYRITDIRANSIAGFEVALDGILVAYSLVTLGLVER,not soluble
7,MGSDKIHHHHHHMRVFNSSPPSEAQTRTRILQAAQRLFASQGFDGTTTRDLAQAAGVAEGTLFRHFPNKKAILVEVATSGWVEILTDLLTELSEMGSYKAVAQVMRRRMWNFQKNADLMRVCFMEVQFHPDLRDRIQLEVITKMTDVGEAFFQTAMDKGIYRKMDAKLVAKVFLGMFAIAGFSNNTLIEPDASPQQMQEMAEGLADIFLNGVLAKD,not soluble
8,MGSDKIHHHHHHMTGNQMFCRENELDESFKQLASYINIPVGVLLPFKSQCFVRHYNKGQIVYYSSDETTHIYLLLKGNIMRENFNLNGDVYRYLNREKVLFPLNNLFQDKVPNEMCTALTDCEMIGIPRDLIEYLCKNHEEIFVKLFSLLSETQCQHIEYNMALTSKLAKERVTKILRYLCQTVGYDHDEFYEIKHFMTIQLLSDMAGISRETTSHIINELREEKILFKNSKNWLVSKDL,not soluble
9,MLLAGLLASVEHGLNRVLRLDSTALPRLAALEGKVIEIDCRQPALQVFILPDEEGLMLAAHWQGEVDCRLRAPAGSLAQLALVKDKTAVLHSPQVELHGDSAVLLDLFGVLQDLELDWEHELQRWLGPVATAMLAGHIRLRARWTRQGLARFSQNLSEYLAEESRTLVGKREAEAAFSELDALKLDTERLEARLKRLSRSLDTSDNA,not soluble
10,MAHHHHHHMTAQILLYTDCIPQVFSPLKGEREGLLDSQQFANITTNCNTAFACGDPSLNTRISPYMRLSYFHNVTRIRNRKAHISHDIAGDCYVHYKTTCGGIILRPNVRLRPRGRSHRNRVSPRNVIFAAIFLNHRRNGLNRHIDRLNQILQKIIGNIAQTRYG,not soluble
11,FTNPGQIVGRIDRDSGMTSTAPAMPDGDWQAYGRTEFGDRYSPLKQITPANVGQLEEAWRIRTGDLPTADDPLELTNENTPLKVNGMLYACTAHSKVLALDPDTGAEIWRFDPQIQSPVGFKGFAHMTCRGVSYYDEEQYARSDVGAPPAALSEAGKAVAASCPRRLFLPTADARLIAINADNGKVCEDFGVKGAVDLTAGIGPFTPGGYYSTSPAAVTRNLVIIGGHVTDNESTNEPSGVIRAFDVHDGKLVWNWDSGNPDETEPLAPGKFYTRNSPNMWSLASVDEKLGQVYLPLGNQMPDQWGGNRTPGAEKFSAGLVALDLNTGKLRWNYQFTHHDLWDMDVGSQPTLLDLKTADGVKPALIAPTKQGSLYVLDRRDGTPIVPIREVPAPQGAVEGDHTAPTQARSDLNLLRPPLTERDMWGSSPFDQMLCRIQFRSLRYEGQYTPPSEQGSLIYPGNVGVFNWGGVSVDPVRQILFTSPNYMAFVSQMVPRDKVPSGSKREGETSGVQPNTGAPYAVIMHPFMSPIGLPCQAPSWGDVAGIDLTTAKVVWQHKNGTSRDNTPVPIGLTVGVPSMGGSITTAGGVAFLSGTLDQYLRAYDVKDGKQLWQARLPAGGQATPMSYTGKDGRQYVLIVAGGHGSFGTRMGDYIIAYALPR,not soluble
12,MNKISPLGSNWNEFEQQIFNEEEIRESNLRVALIKELITSRQQLGISQKQLETLSGVKQPMIARIEKGQTNPQLETLLKLLAPLGKTLSIVPLRVKNA,not soluble
13,MSSQNANLMREVRLFENHSEREQMENLSELFAVLNALEHLEKMFSRDHVSADEYKSECFKLIDQYKVTMRLVHGATSIEDFAKKYRLHCPAAIERIREGRPITVKDDQGNVLKHIASIVEQFITFLDALRLNTRAVDDLYPGLDDLYNAINTTSRVPIDAIVTTKVKKWHDRLSSMAASDEISDEDARQMIFDVESAYQAFNKALNELKH,soluble
14,MGSDKIHHHHHHMDCSKASTDTEKMICASSRLQQLDAVLNKAYQGYVKKADKAQARQEQRTWLAERDRCKDDVCLGNEMVSRIQALSGSENISVITQASGQWDFILSVATCNLDSSYSTCEGPGTLDIFKKGSGDLFQRITMENLFIELNNKGEVTANLVEVYGENNSGLVIDDANFDHHADIMLRNGNNGAYGGPSYDVYLFDVEKQQFTQNAPLTELASSNLGLFDIDEKSKTITTFTKSGCCWHQWSAYQMANNKPVLIVETTEAYSEEKQAMVATTRELVSGKWKVKEEIVKIDEQ,not soluble
15,MGSDKIHHHHHHMTTKYQTIISNIEQDIQKQRLKKGDKLPSIRVLSKVYYCSKDTVQRALLELKYRHLIYAVPKSGYYVLGNVSMPDNVLNLSLEDYNNMAYEDFRLCLNEALSAKDKYLFHYYHKTEGLEELREALLLYLAENSVYSNKDQLLITSGTQQALYILSQMPFPNTGKTILLEKPTYHRMEAIVAQLGLPYQTISRHFNGLDLELLESLFQTGDIKFFYTISRFSHPLGLSYSTKEKEAIVRLAQRYQVYILEDDYLGDFVKLKEPPIHYYDTHHRIIYLKSFSMSVFPALRIGALVLPSGLKPHFLTQKSLIDLDTNLLMQKALALYLENGMFQKNLRFIKRYLKQRERQLALFLKQNCPDIHYQLTPTHLVIDYTTSDSYRNFTLDKSDRIIITGKKRYLSITINQQIQSKLNSLIKNTCGKSN,not soluble
16,MSKKRGLSGEEKRTRMMEIFFETKDVFQLKDLEKLAPKEKGITAMSVKEVLQSLVDDGMVDCERIGTSNYYWAFPSKALHARKRKLEALNSQLSEGSQKHADLQKSIEKARVGRQETEERAMLAKELFSFRDQRQQLKAEVEKYRECDPQVVEEIREANKVAKEAANRWTDNIFAIKSWAKRKFGFEESKIDKNFGIPEDFDYIDMSKSRAEAAAGAPGIILRYLQEQNRPYSAQDVFGNLQKEHGLGKAAVVKALDQLAQEGKIKEKTYGKQKIYFADQNQFDTVSDADLHGLDASIVALTAKVQSLQQSCRHMEAELKELTSALTTPEMQKEIQELKKECAQYTERLKNIKAATNHVTPEEKEKVYRDRQKYCKEWRKRKRMTTELCDAILEGYPKSKKQFFEEVGIETDEDHNVLLPDP,soluble
17,MGSDKIHHHHHHMGTFFVDFYNEYPDTSYIKIPTNPLDRVIGQDDAVKIAMVAAKQRRHLLLVGPPGVGKSMIAQAMSFYIDRPTEEIRVVHNPQYPERPFVEIKTREEVMAEREEETSTSGIIIDPKDAPTSVAERLGYRCSKCGFYSSPSDAVCPNCNSPKIQMGTQGPFGDVFNVIGAAFGVQNNLDKVTLTRRNGDHDEIIVYERYNDKIRVLDEKTLERRRRLEKKSPSKTIVPIDRNPFVLATGASETELLGDVRHDPYGGHPQLGTLPYERVIAGAVHEAHQGVLFIDEITHLGNLQRYILTAMQEKTFPITGRNPQSAGASVRVDKVPADFILVAACNINDLPYILSPLRSRIVGNGYEILMKTTMKDTDENRMKYLQFISQEITMDGKIPHMTMEAAELIIEEGKKRARIIDKKNNELTLRLRELGGLIRAAGDIAVFKGNKLIEKEDVEEAIKLYVPVEEKITKEYGSMAAAYSSENTTSQKDFYNYNLDDRSYE,not soluble
